# ± gives the standard deviation of the averaged measurements.
# Assays:
# Saccharomyces cerevisiae [1] = test: protein stability index of tFT-peptide fusion (C-terminal peptide) (PSI (0-1 scale)); higher = more stable (slower turnover)
# Method: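 MPS profiling in S. cerevisiae of the tFT-X12 degron library: putative degron peptides plus stable controls, 12 aa, fused to the C-terminus of a sfGFP-mCherry timer. Cells are FACS-sorted into 8 mCherry/sfGFP bins and deep-sequenced. PSI runs from 0 (unstable) to 1 (stable). Backgrounds are wild type, das1Δ and doa10Δ at 30 °C, and wild type, das1Δ, cdc34-1 and cdc53-1 at 37 °C; 2-3 technical replicates each.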
# Saccharomyces cerevisiae [2] = test: as above; details: genetic background: wild type; temperature: 30 C
# [3] = genetic background: cdc34-1, temperature: 37 C
# [4] = genetic background: cdc53-1, temperature: 37 C
# [5] = genetic background: das1 deletion, temperature: 30 C
# [6] = genetic background: das1 deletion, temperature: 37 C
# [7] = genetic background: doa10 deletion, temperature: 30 C
# [8] = genetic background: wild type, temperature: 30 C
# [9] = genetic background: wild type, temperature: 37 C
# 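Also: PSI is a weighted mean of sequencing reads over stability bins, variants kept only with over 10 reads, mCherry proximal and sfGFP distal, peptide attached via GGGS linker.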
Sequence,protein stability index (Saccharomyces cerevisiae [1]; [3]),protein stability index (Saccharomyces cerevisiae [1]; [4]),protein stability index (Saccharomyces cerevisiae [1]; [5]),protein stability index (Saccharomyces cerevisiae [1]; [6]),protein stability index (Saccharomyces cerevisiae [1]; [7]),protein stability index (Saccharomyces cerevisiae [1]; [8]),protein stability index (Saccharomyces cerevisiae [1]; [9]),protein stability index (Saccharomyces cerevisiae [2])
FYVIFRRACLSV,0.281 ± 0.0084,0.32 ± 0.016,0.234 ± 0.03,0.3605 ± 0.0029,0.1681 ± 0.00044,0.195 ± 0.0079,0.299 ± 0.0099,0.292 ± 0.077
GACGLGMLIFIV,0.585 ± 0.04,0.618 ± 0.03,0.427 ± 0.026,0.623 ± 0.015,0.256 ± 0.012,0.29 ± 0.02,0.511 ± 0.017,0.411 ± 0.0075
GAPIFSSFLLFC,0.541 ± 0.054,0.652 ± 0.022,0.579 ± 0.032,0.667 ± 0.012,0.332 ± 0.028,0.31 ± 0.028,0.5425 ± 0.0023,0.412 ± 0.026
GARCFGFFCFLV,0.4284 ± 0.0039,0.507 ± 0.027,0.447 ± 0.032,0.582 ± 0.011,0.127 ± 0.0078,0.115 ± 0.017,0.169 ± 0.0064,0.207 ± 0.011
GCIFGNVVFVRV,0.602 ± 0.031,0.6098 ± 0.0023,0.424 ± 0.03,0.6335 ± 0.0023,0.433 ± 0.02,0.433 ± 0.022,0.611 ± 0.0075,0.472 ± 0.062
GCIMHLTIYVRD,0.302 ± 0.03,0.3761 ± 0.0008,0.265 ± 0.026,0.439 ± 0.032,0.2235 ± 0.0014,0.26 ± 0.028,0.4088 ± 0.0016,0.322 ± 0.0096
GCPRSWSFNIYV,0.686 ± 0.046,0.739 ± 0.0099,0.665 ± 0.013,0.742 ± 0.018,0.182 ± 0.018,0.199 ± 0.022,0.463 ± 0.013,0.408 ± 0.04
GCRSLRLWLTFS,0.638 ± 0.018,0.7023 ± 0.0065,0.628 ± 0.02,0.726 ± 0.013,0.299 ± 0.0033,0.312 ± 0.015,0.551 ± 0.024,0.443 ± 0.029
GCVVVLIPVVSA,0.333 ± 0.014,0.338 ± 0.0038,0.249 ± 0.038,0.415 ± 0.0087,0.215 ± 0.0045,0.266 ± 0.015,0.381 ± 0.0088,0.382 ± 0.022
GEAYVYLFVYSC,0.4329 ± 0.0022,0.467 ± 0.0051,0.276 ± 0.036,0.541 ± 0.019,0.16 ± 0.012,0.173 ± 0.017,0.387 ± 0.0098,0.25 ± 0.0051
GEWCLPLRLVVY,0.061 ± 0.013,0.0685 ± 0.024,0.185 ± 0.021,0.201 ± 0.011,0.137 ± 0.01,0.172 ± 0.02,0.174 ± 0.012,0.22 ± 0.043
GFCVRIFHGFLH,0.634 ± 0.0084,0.7 ± 0.044,0.649 ± 0.018,0.7197 ± 0.0045,0.215 ± 0.0082,0.251 ± 0.04,0.501 ± 0.014,0.351 ± 0.01
GFDVFWLWVVVA,0.0676 ± 0.024,0.208 ± 0.017,0.192 ± 0.032,0.307 ± 0.022,0.0812 ± 0.011,0.103 ± 0.027,0.0966 ± 0.015,0.125 ± 0.019
GFRMACYIRVLS,0.337 ± 0.015,0.38 ± 0.017,0.245 ± 0.046,0.445 ± 0.0051,0.175 ± 0.01,0.182 ± 0.026,0.286 ± 0.02,0.296 ± 0.016
GFSFVCFSPFLF,0.667 ± 0.041,0.779 ± 0.02,0.65 ± 0.0058,0.745 ± 0.011,0.3864 ± 0.0023,0.41 ± 0.02,0.5401 ± 0.001,0.42 ± 0.038
GFVRTVWLMCYV,0.286 ± 0.027,0.341 ± 0.017,0.285 ± 0.025,0.417 ± 0.013,0.129 ± 0.017,0.161 ± 0.012,0.203 ± 0.013,0.245 ± 0.032
GFWLAFLWYRES,0.386 ± 0.067,0.507 ± 0.021,0.34 ± 0.035,0.548 ± 0.016,0.222 ± 0.015,0.248 ± 0.036,0.433 ± 0.033,0.4406 ± 0.0022
GGAVGVRGGCRG,0.565 ± 0.12,0.7112 ± 0.0027,0.496 ± 0.017,0.635 ± 0.036,0.522 ± 0.05,0.512 ± 0.027,0.607 ± 0.026,0.452 ± 0.033
GGCILYFCMSIV,0.411 ± 0.021,0.492 ± 0.0065,0.387 ± 0.029,0.505 ± 0.011,0.371 ± 0.0097,0.374 ± 0.0063,0.472 ± 0.026,0.4 ± 0.026
GGGSRICIVRLS,0.654 ± 0.092,0.7229 ± 0.0024,0.636 ± 0.017,0.722 ± 0.0083,0.178 ± 0.025,0.197 ± 0.023,0.406 ± 0.03,0.337 ± 0.077

Sequence,protein stability index (Saccharomyces cerevisiae [1]; [3]),protein stability index (Saccharomyces cerevisiae [1]; [4]),protein stability index (Saccharomyces cerevisiae [1]; [5]),protein stability index (Saccharomyces cerevisiae [1]; [6]),protein stability index (Saccharomyces cerevisiae [1]; [7]),protein stability index (Saccharomyces cerevisiae [1]; [8]),protein stability index (Saccharomyces cerevisiae [1]; [9]),protein stability index (Saccharomyces cerevisiae [2])
GGGVRWGVLVLG,0.527 ± 0.007,0.606 ± 0.032,0.4 ± 0.035,0.599 ± 0.013,0.346 ± 0.017,0.391 ± 0.036,0.553 ± 0.012,0.474 ± 0.011
GGLGIVWLWLVV,0.344 ± 0.021,0.42 ± 0.024,0.307 ± 0.033,0.4926 ± 0.0048,0.234 ± 0.016,0.282 ± 0.02,0.467 ± 0.016,0.378 ± 0.047
GGLRILLRLVWT,0.471 ± 0.052,0.47 ± 0.014,0.377 ± 0.033,0.488 ± 0.008,0.381 ± 0.011,0.345 ± 0.045,0.471 ± 0.014,0.454 ± 0.025
GGWVIVFMVGRG,0.523 ± 0.049,0.629 ± 0.084,0.362 ± 0.033,0.5982 ± 0.002,0.334 ± 0.0065,0.3607 ± 0.0035,0.535 ± 0.02,0.427 ± 0.02
GIALYVCFICVG,0.213 ± 0.0051,0.364 ± 0.013,0.253 ± 0.017,0.4325 ± 0.0026,0.137 ± 0.026,0.17 ± 0.015,0.276 ± 0.012,0.245 ± 0.05
GIIRVSSQVIVR,0.565 ± 0.0072,0.607 ± 0.018,0.445 ± 0.026,0.617 ± 0.0065,0.422 ± 0.012,0.443 ± 0.0097,0.5905 ± 0.0054,0.523 ± 0.035
GLCLMICVLCFV,0.207 ± 0.0085,0.315 ± 0.023,0.244 ± 0.027,0.382 ± 0.0052,0.214 ± 0.00016,0.23 ± 0.027,0.337 ± 0.023,0.299 ± 0.0039
GLCSFPCSSCRL,0.875 ± 0.023,0.8868 ± 0.0025,0.76 ± 0.018,0.812 ± 0.028,0.772 ± 0.024,0.772 ± 0.054,0.836 ± 0.021,0.756 ± 0.052
GLCVGRMFVRQI,0.6614 ± 0.0031,0.7126 ± 0.0054,0.661 ± 0.018,0.7222 ± 0.005,0.248 ± 0.0031,0.263 ± 0.026,0.5463 ± 0.0024,0.454 ± 0.011
GLFWWVWAGFFC,0.7005 ± 0.0052,0.7681 ± 0.0013,0.583 ± 0.023,0.8189 ± 0.0055,0.428 ± 0.025,0.421 ± 0.018,0.624 ± 0.056,0.436 ± 0.011
GLGFFMSFCFFL,0.554 ± 0.015,0.579 ± 0.031,0.477 ± 0.06,0.567 ± 0.011,0.474 ± 0.0077,0.4562 ± 0.0037,0.55817 ± 0.00049,0.484 ± 0.036
GLLAWGCVFWVV,0.402 ± 0.037,0.52 ± 0.01,0.336 ± 0.048,0.544 ± 0.01,0.167 ± 0.015,0.198 ± 0.017,0.3379 ± 0.00092,0.259 ± 0.014
GLLGRSRLIFYN,0.721 ± 0.026,0.8063 ± 0.0023,0.661 ± 0.013,0.788 ± 0.01,0.427 ± 0.0058,0.458 ± 0.018,0.666 ± 0.0092,0.517 ± 0.088
GLVAGVYVGSGL,0.7099 ± 0.0059,0.759 ± 0.011,0.629 ± 0.036,0.741 ± 0.0076,0.648 ± 0.031,0.616 ± 0.013,0.721 ± 0.01,0.701 ± 0.02
GMCRVELIATCG,0.368 ± 0.039,0.409 ± 0.018,0.276 ± 0.036,0.453 ± 0.011,0.229 ± 0.0046,0.28 ± 0.026,0.4381 ± 0.0011,0.307 ± 0.031
GMGYISVVVWSH,0.0293 ± 0.0072,0.1 ± 0.029,0.141 ± 0.046,0.2283 ± 0.00048,0.104 ± 0.015,0.114 ± 0.017,0.155 ± 0.017,0.208 ± 0.0092
GQLKGKDETEKK,0.7023 ± 0.005,0.749 ± 0.027,0.616 ± 0.023,0.769 ± 0.029,0.645 ± 0.027,0.655 ± 0.051,0.691 ± 0.0094,0.191 ± 0.021
GRHRRYLLLPVH,0.487 ± 0.029,0.5232 ± 0.0027,0.369 ± 0.028,0.541 ± 0.0057,0.308 ± 0.0055,0.35 ± 0.019,0.485 ± 0.013,0.419 ± 0.015
GRSVLIGLIVRC,0.417 ± 0.015,0.433 ± 0.014,0.332 ± 0.048,0.53715 ± 0.00026,0.437 ± 0.023,0.349 ± 0.022,0.479 ± 0.0083,0.4701 ± 0.0034

# Reference: the supplement of paper PMC10724198
